Experimental data from IntAct's records for PubMed 23142979.

Target: DAXX, Q9UER7-1
Sequence (Q9UER7 whole entry): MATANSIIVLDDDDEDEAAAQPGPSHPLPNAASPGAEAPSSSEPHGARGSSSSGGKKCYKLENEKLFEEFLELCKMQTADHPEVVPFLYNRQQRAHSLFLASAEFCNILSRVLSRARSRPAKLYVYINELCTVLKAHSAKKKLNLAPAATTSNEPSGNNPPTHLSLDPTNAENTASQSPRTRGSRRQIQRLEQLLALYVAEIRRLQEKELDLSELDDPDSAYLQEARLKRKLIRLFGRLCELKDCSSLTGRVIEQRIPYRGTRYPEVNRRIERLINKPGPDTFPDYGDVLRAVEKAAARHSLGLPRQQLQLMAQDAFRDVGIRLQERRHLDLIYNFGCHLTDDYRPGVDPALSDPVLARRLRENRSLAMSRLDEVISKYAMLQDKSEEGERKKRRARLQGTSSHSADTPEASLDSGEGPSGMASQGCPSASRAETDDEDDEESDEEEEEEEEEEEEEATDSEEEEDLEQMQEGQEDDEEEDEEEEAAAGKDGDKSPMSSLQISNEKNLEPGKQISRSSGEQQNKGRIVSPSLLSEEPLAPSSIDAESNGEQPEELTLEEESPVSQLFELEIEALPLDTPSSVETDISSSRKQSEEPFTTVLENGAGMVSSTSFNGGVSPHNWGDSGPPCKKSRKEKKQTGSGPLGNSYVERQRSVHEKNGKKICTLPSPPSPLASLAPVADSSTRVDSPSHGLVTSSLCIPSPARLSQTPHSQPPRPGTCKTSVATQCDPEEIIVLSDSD

## Histone H3.1 (Homo sapiens) (from UniProt P68431) S88A
  effect of a mutation on the interaction: increasing interaction strength
